Reference: patent publication US20040219514A1, “Caml-binding peptides” (priority 2000, published 2004)

Experiments:
calcium ions from the ER = test: Efflux of calcium ions from the ER; type: cell-based; settings: in the presence of E3/6.7K
full length CAML [1] = biological target: T1, full length CAML (Mus musculus, UniProt P49070); test: Yeast two-hybrid interaction; type: binding; settings: GAL4 bait/prey
T1 construct: expressed in transfected cells; host or cells: Saccharomyces cerevisiae AH109
T1 sequence (P49070 1-294): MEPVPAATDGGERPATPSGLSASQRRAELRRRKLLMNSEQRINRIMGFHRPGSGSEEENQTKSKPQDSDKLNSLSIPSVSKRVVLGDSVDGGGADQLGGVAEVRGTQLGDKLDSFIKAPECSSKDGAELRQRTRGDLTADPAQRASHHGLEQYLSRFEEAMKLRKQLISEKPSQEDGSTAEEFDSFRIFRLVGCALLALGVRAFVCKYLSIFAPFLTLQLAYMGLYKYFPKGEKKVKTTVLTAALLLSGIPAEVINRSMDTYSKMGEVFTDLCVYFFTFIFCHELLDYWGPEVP
From the text: (§1) pBD-6.7, a bait vector containing E3/6.7, was constructed by subdloning full length E3/6.7K cDNA in frame into the C terminus of the GAL4 DNA binding domain of vector pGBKT7 (CLONTECH). pAD-CAML was constructed by subcloning full length CAML in frame into the C terminus of the GAL4 activation domain of the prey vector pGADT7 (CLONTECH). pAD-CAML(201) was constructed by subdloning amino acids 1 to 201 of CAML in frame into the C terminus of the GAl4 activation domain of the prey vector pGADT7. The fidelity of the constructs was confirmed by sequencing.
(§2) Yeast Transformation and Selection. p]3D-6.7 and pAD-CAML or pAD-CAML(201) were transformed together into Saccharomyces cerevisiae AH109 using the Lithium Acetate Yeast Transformation procedure as described by Gietz, D., et al. (1992) Nucleic Acids Res., 20:1425. Control cotransformation of p3D-53 /pAD-T and pBD-Lam/pAD-T were also done. pBD-53/pAD-T encode fusions between the GAL4 DNA-BD and AD and murine p53 and SV40 large T-antigen, respectively. p53 and large T-antigen interact in a yeast two-hybrid assay. pBD-Lam encodes a fusion of the DNA-BD with human lamin C and provides a negative control for an interaction with pAD-T. For yeast selection, pBD containing the […] gene was selected on synthetic drop out media lacking tryptophan (SD-T). pAD contains the LEU2 gene and was selected for on SD-L (leucine).
(§3) CAML-Binding with SED. The yeast two hybrid system takes advantage of the GAL4 transcriptional activator which consists of two separable and functionally essential domains: a DNA binding domain and a domain that activates transcription. A bait gene (fragments of the E3/6.7K gene) was expressed as a fusion to the GAL4 DNA-binding domain (ED), while a prey gene (CAML) was expressed as a fusion to the GAL4 activation domain (AD). When bait and prey fusion proteins interact, the BD and AD are brought into proximity, thus activating transcription of reporter genes.

[2] = biological target: T2, amino acids 1 to 201 of CAML (Homo sapiens, UniProt P49069); test: Yeast two-hybrid interaction; type: binding
T2 construct: subdloning amino acids 1 to 201 of CAML in frame; expressed in transfected cells; host or cells: Saccharomyces cerevisiae AH109
T2 sequence (P49069 1-201): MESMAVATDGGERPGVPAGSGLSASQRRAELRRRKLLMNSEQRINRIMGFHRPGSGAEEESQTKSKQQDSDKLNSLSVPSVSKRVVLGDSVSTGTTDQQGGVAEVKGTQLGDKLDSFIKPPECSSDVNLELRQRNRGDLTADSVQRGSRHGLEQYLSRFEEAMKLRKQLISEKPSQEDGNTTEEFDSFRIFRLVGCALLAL
From the text: as §1, §2, §3

full length CAML [3] = biological target: T3, full length CAML (Homo sapiens, UniProt P49069); test: Yeast two-hybrid interaction; type: binding
T3 construct: expressed in transfected cells; host or cells: Saccharomyces cerevisiae AH109
T3 sequence (P49069 1-296): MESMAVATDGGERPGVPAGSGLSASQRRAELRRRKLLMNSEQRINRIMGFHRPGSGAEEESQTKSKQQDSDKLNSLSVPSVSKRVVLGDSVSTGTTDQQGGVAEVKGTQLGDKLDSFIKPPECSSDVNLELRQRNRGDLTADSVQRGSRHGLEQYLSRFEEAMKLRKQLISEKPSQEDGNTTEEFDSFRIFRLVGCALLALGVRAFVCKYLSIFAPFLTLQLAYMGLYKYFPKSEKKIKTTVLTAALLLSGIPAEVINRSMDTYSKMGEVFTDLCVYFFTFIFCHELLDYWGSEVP
From the text: as §1, §2, §3

U937 cells [4] = test: Annexin V-FACS apoptosis assay; type: cell-based, human
Protocol: (§4) Generation of stable U937 cell lines expressing E3/6.7K U937 human histiocytic lymphoma cells obtained from ATCC (CRL 1593) were maintained in RPMI 1640, 10% FCS, 2 mM L-glutamine, 10 mM HEPES, 100 U/ml penicillin and 100 μg/ml streptomycin in an atmosphere of 5% CO2 and 100% humidity. Cells were transfected with the appropriate construct by using the DMRIE-C cationic lipid reagent available from Life Technologies using the manufacturer's protocol. Transfected cells were maintained in medium containing geneticin G-418 sulphate at a final concentration of 800 μg/ml. Media and supplements were purchased from Life Technologies. Subclones of the transfected cell lines were generated by serial dilution and examined for expression of E3/6.7K by Northern Blotting. The expression of E3/6.7K mRNA was very similar in all the clones examined. All the G-418 resistant cells that survived the selection procedure were pooled and used for the in vitro assays, in order to avoid clonal variations known to arise in U937 cells.
Annexin V-FACS apoptosis assay. Annexin V-FITC (PharMingen) was used to determine the binding of Annexin V to externalized phosphatidyl serine. […] One sample of cells was not stained and used to set up the baseline fluorescence. The cells were examined with a fluorescence-activated cell sorter SACS) on a Beckton Dickson FACS Analyzer.

U937 cells [5] = test: Arachidonic acid release assay; type: cell-based, human
Protocol: as §4
Arachidonic acid release assays. […] After 20 hours of treatment the cells were centrifuged and 100 μl of supernatant out of 500 μl total was mixed with 3 ml scintillation fluid and counted. […] The counts per minute of released [3H] arachidonic acid were expressed as a percentage of the average of total incorporated [3H] arachidonic acid.

CAML = biological target: T4, CAML (Homo sapiens, UniProt P49069); settings: published reports on human TACI fragments; cited from earlier work
T4 sequence (P49069 1-296): T3 sequence (P49069 1-296)

B1: E3/6.7K: 6.7K protein encoded by the adenovirus E3 region; integral membrane protein localized to the endoplasmic reticulum; expressed from transfected Ad2 cDNA (protein)
chain: MSNSSNSTSLSNFSGIGVGVILTLVILFILILALLCLRVAACCTHVCTYCQLFKRWGQHPR
modifications: Adenovirus, Ad2 E3/6.7K
notes: 6.7K protein encoded by the adenovirus E3 region; integral membrane protein localized to the endoplasmic reticulum; expressed from transfected Ad2 cDNA
Q: For B1, which “efflux of calcium ions from the ER” value (calcium ions from the ER) is on record?
A: reduced

Q: What about the “interaction with CAML” value (full length CAML [1]) of the same molecule?
A: interacts

Q: And the “interaction with CAML” value ([2]; 1-201 residue domain of CAML, GAL4 bait/prey)?
A: interacts

Q: What about the “growth of yeast on interaction-selective media” value ([2]; pBD-6.7 and pAD-CAML(201) in S. cerevisiae AH109, SD-LTHX or SD-AHLTX) of the same molecule?
A: able to grow on both SD-LTHX or SD-AHLTX

Q: What about the “interaction with CAML” value (full length CAML [3]; full length human CAML, GAL4 bait/prey) of the same molecule?
A: interacts

Q: And the “growth of yeast on interaction-selective media” value (full length CAML [3]; pBD-6.7 and pAD-CAML in S. cerevisiae AH109, SD-LTHX or SD-AHLTX)?
A: able to grow on both SD-LTHX or SD-AHLTX

Q: What about the “reduction in apoptosis compared to U937neor” value (U937 cells [4]; U937-E3/6.7K cells, combination of TNF-α and CHX) of the same molecule?
A: 65%

Q: What about the “reduction in percentage of apoptotic cells compared with U937neor” value (U937 cells [4]; cells expressing E3/6.7K, stimulation with TNF-α) of the same molecule?
A: 55%

Q: And the “reduction of release of [3H] arachidonic acid compared to U937neor” value (U937 cells [5]; U937-E3/6.7K cells, TNF-α and cycloheximide (CHX))?
A: 60%

Q: What about the “decrease of [3H] arachidonic acid release compared with U937 cells transfected with vector alone” value (U937 cells [5]; U937 cells transfected with E3/6.7K cDNA, stimulated with TNF-α) of the same molecule?
A: 50%

B2: 1-233 of human TACI: fragment of human TACI, amino acids 1-233 (protein, UniProt O14836 1-233, looked up, fragment)
chain: MSGLGRSRRGGRSRVDQEERFPQGLWTGVAMRSCPEEQYWDPLLGTCMSCKTICNHQSQRTCAAFCRSLSCRKEQGKFYDHLLRDCISCASICGQHPKQCAYFCENKLRSPVNLPPELRRQRSGEVENNSDNSGRYQGLEHRGSEASPALPGLKLSADQVALVYSTLGLCLCAVLCCFLVAVACFLKKRGDPCSCQPRSRPRQSPAKSSQDHAMEAGSPVSTSPEPVETCSFC
Q: For B2, which CAML-binding (CAML) is on record?
A: capable of binding to CAML

B3: amino acids 1-168 of human TACI: fragment of human transmembrane activator and CAML interactor (TACI), amino acids 1-168 (protein, UniProt O14836 1-168, looked up, fragment)
chain: MSGLGRSRRGGRSRVDQEERFPQGLWTGVAMRSCPEEQYWDPLLGTCMSCKTICNHQSQRTCAAFCRSLSCRKEQGKFYDHLLRDCISCASICGQHPKQCAYFCENKLRSPVNLPPELRRQRSGEVENNSDNSGRYQGLEHRGSEASPALPGLKLSADQVALVYSTLG
Q: Which CAML-binding (CAML) does the source give for B3 here?
A: did not occur

B4: amino acids 1-212: fragment of human TACI, amino acids 1-212 (protein, UniProt O14836 1-212, looked up, fragment)
chain: MSGLGRSRRGGRSRVDQEERFPQGLWTGVAMRSCPEEQYWDPLLGTCMSCKTICNHQSQRTCAAFCRSLSCRKEQGKFYDHLLRDCISCASICGQHPKQCAYFCENKLRSPVNLPPELRRQRSGEVENNSDNSGRYQGLEHRGSEASPALPGLKLSADQVALVYSTLGLCLCAVLCCFLVAVACFLKKRGDPCSCQPRSRPRQSPAKSSQDH
Q: For B4, which CAML-binding (CAML) is on record?
A: capable of binding to CAML
